Experimental data taken from patent publication US11130793B2, “GLP-1/GLP-2 dual agonists” (Zealand Pharma A/S, priority 2016, dated 2021).
Square brackets hold non-standard residues; d marks the D form. Aib = CC(C)(N)C(=O)O

Experiments:
[1] = target: T1, human GLP-2 receptor (hGLP2-R) (human, UniProt O95838); experiment: cell-based or functional assay
T1 sequence: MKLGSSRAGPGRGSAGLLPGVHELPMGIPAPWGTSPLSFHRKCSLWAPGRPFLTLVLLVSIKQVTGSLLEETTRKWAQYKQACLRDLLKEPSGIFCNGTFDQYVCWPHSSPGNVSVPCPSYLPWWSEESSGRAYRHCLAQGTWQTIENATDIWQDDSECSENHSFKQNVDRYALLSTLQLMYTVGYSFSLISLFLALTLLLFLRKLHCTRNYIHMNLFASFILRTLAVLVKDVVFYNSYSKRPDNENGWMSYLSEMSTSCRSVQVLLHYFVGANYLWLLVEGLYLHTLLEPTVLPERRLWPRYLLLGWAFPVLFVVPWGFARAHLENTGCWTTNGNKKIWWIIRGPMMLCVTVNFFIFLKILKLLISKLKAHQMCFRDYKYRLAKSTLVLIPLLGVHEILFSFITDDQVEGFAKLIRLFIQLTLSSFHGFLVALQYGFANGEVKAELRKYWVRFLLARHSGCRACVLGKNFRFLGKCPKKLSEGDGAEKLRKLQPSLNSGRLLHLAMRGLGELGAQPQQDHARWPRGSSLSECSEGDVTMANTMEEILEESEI

[2] = target: human glucagon-like peptide 1 receptor (GLP-1R) (human, UniProt P43220); experiment: cell-based or functional assay

B1: Compound 4 (peptide)
peptide: H-H[Aib]EGSFTSELATILDEQAARDFIAWLIEHKITD-OH
SMILES: CC[C@H](C)[C@H](NC(=O)[C@H](Cc1ccccc1)NC(=O)[C@H](CC(=O)O)NC(=O)[C@H](CCCNC(=N)N)NC(=O)[C@H](C)NC(=O)[C@H](C)NC(=O)[C@H](CCC(N)=O)NC(=O)[C@H](CCC(=O)O)NC(=O)[C@H](CC(=O)O)NC(=O)[C@H](CC(C)C)NC(=O)[C@@H](NC(=O)[C@@H](NC(=O)[C@H](C)NC(=O)[C@H](CC(C)C)NC(=O)[C@H](CCC(=O)O)NC(=O)[C@H](CO)NC(=O)[C@@H](NC(=O)[C@H](Cc1ccccc1)NC(=O)[C@H](CO)NC(=O)CNC(=O)[C@H](CCC(=O)O)NC(=O)C(C)(C)NC(=O)[C@@H](N)Cc1c[nH]cn1)[C@@H](C)O)[C@@H](C)O)[C@@H](C)CC)C(=O)N[C@@H](C)C(=O)N[C@@H](Cc1c[nH]c2ccccc12)C(=O)N[C@@H](CC(C)C)C(=O)N[C@H](C(=O)N[C@@H](CCC(=O)O)C(=O)N[C@@H](Cc1c[nH]cn1)C(=O)N[C@@H](CCCCN)C(=O)N[C@H](C(=O)N[C@H](C(=O)N[C@@H](CC(=O)O)C(=O)O)[C@@H](C)O)[C@@H](C)CC)[C@@H](C)CC
Q: With B1 as the binder, how does the “EC50 GLP-2 (nM); cAMP AlphaScreen” value [1] read?
A: The value was 0.044 nM.

Q: What about the “EC50 GLP-1 (nM); cAMP AlphaScreen” value [2] of the same binder?
A: Its value is 0.015 nM.

B2: Compound 9 (peptide)
peptide: H-H[Aib]EGTFTDELATILDEQAARDFIAWLIAHKITD-OH
SMILES: CC[C@H](C)[C@H](NC(=O)[C@H](CC(C)C)NC(=O)[C@H](Cc1c[nH]c2ccccc12)NC(=O)[C@H](C)NC(=O)[C@@H](NC(=O)[C@H](Cc1ccccc1)NC(=O)[C@H](CC(=O)O)NC(=O)[C@H](CCCNC(=N)N)NC(=O)[C@H](C)NC(=O)[C@H](C)NC(=O)[C@H](CCC(N)=O)NC(=O)[C@H](CCC(=O)O)NC(=O)[C@H](CC(=O)O)NC(=O)[C@H](CC(C)C)NC(=O)[C@@H](NC(=O)[C@@H](NC(=O)[C@H](C)NC(=O)[C@H](CC(C)C)NC(=O)[C@H](CCC(=O)O)NC(=O)[C@H](CC(=O)O)NC(=O)[C@@H](NC(=O)[C@H](Cc1ccccc1)NC(=O)[C@@H](NC(=O)CNC(=O)[C@H](CCC(=O)O)NC(=O)C(C)(C)NC(=O)[C@@H](N)Cc1c[nH]cn1)[C@@H](C)O)[C@@H](C)O)[C@@H](C)O)[C@@H](C)CC)[C@@H](C)CC)C(=O)N[C@@H](C)C(=O)N[C@@H](Cc1c[nH]cn1)C(=O)N[C@@H](CCCCN)C(=O)N[C@H](C(=O)N[C@H](C(=O)N[C@@H](CC(=O)O)C(=O)O)[C@@H](C)O)[C@@H](C)CC
Q: With B2 as the binder, how does the “EC50 GLP-2 (nM); cAMP AlphaScreen” value [1] read?
A: Its value is 0.041 nM.

Q: And the “EC50 GLP-1 (nM); cAMP AlphaScreen” value [2]?
A: The value was 0.007 nM.

B3: Compound 8 (peptide)
peptide: H-H[Aib]EGSFTSELATILDEQAARDFIAWLILHKITD-OH
SMILES: CC[C@H](C)[C@H](NC(=O)[C@H](Cc1ccccc1)NC(=O)[C@H](CC(=O)O)NC(=O)[C@H](CCCNC(=N)N)NC(=O)[C@H](C)NC(=O)[C@H](C)NC(=O)[C@H](CCC(N)=O)NC(=O)[C@H](CCC(=O)O)NC(=O)[C@H](CC(=O)O)NC(=O)[C@H](CC(C)C)NC(=O)[C@@H](NC(=O)[C@@H](NC(=O)[C@H](C)NC(=O)[C@H](CC(C)C)NC(=O)[C@H](CCC(=O)O)NC(=O)[C@H](CO)NC(=O)[C@@H](NC(=O)[C@H](Cc1ccccc1)NC(=O)[C@H](CO)NC(=O)CNC(=O)[C@H](CCC(=O)O)NC(=O)C(C)(C)NC(=O)[C@@H](N)Cc1c[nH]cn1)[C@@H](C)O)[C@@H](C)O)[C@@H](C)CC)C(=O)N[C@@H](C)C(=O)N[C@@H](Cc1c[nH]c2ccccc12)C(=O)N[C@@H](CC(C)C)C(=O)N[C@H](C(=O)N[C@@H](CC(C)C)C(=O)N[C@@H](Cc1c[nH]cn1)C(=O)N[C@@H](CCCCN)C(=O)N[C@H](C(=O)N[C@H](C(=O)N[C@@H](CC(=O)O)C(=O)O)[C@@H](C)O)[C@@H](C)CC)[C@@H](C)CC
Q: Which “EC50 GLP-2 (nM); cAMP AlphaScreen” value [1] does the source give for B3 here?
A: Its value is 0.084 nM.

Q: What about the “EC50 GLP-1 (nM); cAMP AlphaScreen” value [2] of the same binder?
A: Its value is 0.021 nM.

B4: Compound 5 (peptide)
peptide: H-H[Aib]EGTFTSELATILDEQAARDFIAWLIEHKITD-OH
SMILES: CC[C@H](C)[C@H](NC(=O)[C@H](Cc1ccccc1)NC(=O)[C@H](CC(=O)O)NC(=O)[C@H](CCCNC(=N)N)NC(=O)[C@H](C)NC(=O)[C@H](C)NC(=O)[C@H](CCC(N)=O)NC(=O)[C@H](CCC(=O)O)NC(=O)[C@H](CC(=O)O)NC(=O)[C@H](CC(C)C)NC(=O)[C@@H](NC(=O)[C@@H](NC(=O)[C@H](C)NC(=O)[C@H](CC(C)C)NC(=O)[C@H](CCC(=O)O)NC(=O)[C@H](CO)NC(=O)[C@@H](NC(=O)[C@H](Cc1ccccc1)NC(=O)[C@@H](NC(=O)CNC(=O)[C@H](CCC(=O)O)NC(=O)C(C)(C)NC(=O)[C@@H](N)Cc1c[nH]cn1)[C@@H](C)O)[C@@H](C)O)[C@@H](C)O)[C@@H](C)CC)C(=O)N[C@@H](C)C(=O)N[C@@H](Cc1c[nH]c2ccccc12)C(=O)N[C@@H](CC(C)C)C(=O)N[C@H](C(=O)N[C@@H](CCC(=O)O)C(=O)N[C@@H](Cc1c[nH]cn1)C(=O)N[C@@H](CCCCN)C(=O)N[C@H](C(=O)N[C@H](C(=O)N[C@@H](CC(=O)O)C(=O)O)[C@@H](C)O)[C@@H](C)CC)[C@@H](C)CC
Q: What does the source list for B4?
A: EC50 GLP-2 (nM); cAMP AlphaScreen [1]: 0.067 nM; EC50 GLP-1 (nM); cAMP AlphaScreen [2]: 0.0098 nM

B5: Compound 6 (peptide)
peptide: H-H[Aib]EGSFTSELATILDEQAARDFIAWLIHHKITD-OH
SMILES: CC[C@H](C)[C@H](NC(=O)[C@H](Cc1ccccc1)NC(=O)[C@H](CC(=O)O)NC(=O)[C@H](CCCNC(=N)N)NC(=O)[C@H](C)NC(=O)[C@H](C)NC(=O)[C@H](CCC(N)=O)NC(=O)[C@H](CCC(=O)O)NC(=O)[C@H](CC(=O)O)NC(=O)[C@H](CC(C)C)NC(=O)[C@@H](NC(=O)[C@@H](NC(=O)[C@H](C)NC(=O)[C@H](CC(C)C)NC(=O)[C@H](CCC(=O)O)NC(=O)[C@H](CO)NC(=O)[C@@H](NC(=O)[C@H](Cc1ccccc1)NC(=O)[C@H](CO)NC(=O)CNC(=O)[C@H](CCC(=O)O)NC(=O)C(C)(C)NC(=O)[C@@H](N)Cc1c[nH]cn1)[C@@H](C)O)[C@@H](C)O)[C@@H](C)CC)C(=O)N[C@@H](C)C(=O)N[C@@H](Cc1c[nH]c2ccccc12)C(=O)N[C@@H](CC(C)C)C(=O)N[C@H](C(=O)N[C@@H](Cc1c[nH]cn1)C(=O)N[C@@H](Cc1c[nH]cn1)C(=O)N[C@@H](CCCCN)C(=O)N[C@H](C(=O)N[C@H](C(=O)N[C@@H](CC(=O)O)C(=O)O)[C@@H](C)O)[C@@H](C)CC)[C@@H](C)CC
Q: Which results are given for B5?
A: EC50 GLP-2 (nM); cAMP AlphaScreen [1]: 0.047 nM; EC50 GLP-1 (nM); cAMP AlphaScreen [2]: 0.014 nM

B6: Compound 7 (peptide)
peptide: H-H[Aib]EGSFTSELATILDEQAARDFIAWLIYHKITD-OH
SMILES: CC[C@H](C)[C@H](NC(=O)[C@H](Cc1ccccc1)NC(=O)[C@H](CC(=O)O)NC(=O)[C@H](CCCNC(=N)N)NC(=O)[C@H](C)NC(=O)[C@H](C)NC(=O)[C@H](CCC(N)=O)NC(=O)[C@H](CCC(=O)O)NC(=O)[C@H](CC(=O)O)NC(=O)[C@H](CC(C)C)NC(=O)[C@@H](NC(=O)[C@@H](NC(=O)[C@H](C)NC(=O)[C@H](CC(C)C)NC(=O)[C@H](CCC(=O)O)NC(=O)[C@H](CO)NC(=O)[C@@H](NC(=O)[C@H](Cc1ccccc1)NC(=O)[C@H](CO)NC(=O)CNC(=O)[C@H](CCC(=O)O)NC(=O)C(C)(C)NC(=O)[C@@H](N)Cc1c[nH]cn1)[C@@H](C)O)[C@@H](C)O)[C@@H](C)CC)C(=O)N[C@@H](C)C(=O)N[C@@H](Cc1c[nH]c2ccccc12)C(=O)N[C@@H](CC(C)C)C(=O)N[C@H](C(=O)N[C@@H](Cc1ccc(O)cc1)C(=O)N[C@@H](Cc1c[nH]cn1)C(=O)N[C@@H](CCCCN)C(=O)N[C@H](C(=O)N[C@H](C(=O)N[C@@H](CC(=O)O)C(=O)O)[C@@H](C)O)[C@@H](C)CC)[C@@H](C)CC
Q: B6 was tested. Which “EC50 GLP-2 (nM); cAMP AlphaScreen” value [1] did it give?
A: Its value is 0.11 nM.

Q: And the “EC50 GLP-1 (nM); cAMP AlphaScreen” value [2]?
A: The value was 0.017 nM.

B7: Teduglutide ([Gly2]-hGLP-2 (1-33)) (peptide)
peptide: HGDGSFSDEMNTILDNLAARDFINWLIQTKITD
Q: For B7, which “EC50 GLP-1 (nM); cAMP AlphaScreen” value [2] is on record?
A: The value was 39 nM.

B8: Compound 3 (peptide)
peptide: H-H[Aib]EGTFTSELATILDEQAARDFIAWLIAHKITD-OH
SMILES: CC[C@H](C)[C@H](NC(=O)[C@H](CC(C)C)NC(=O)[C@H](Cc1c[nH]c2ccccc12)NC(=O)[C@H](C)NC(=O)[C@@H](NC(=O)[C@H](Cc1ccccc1)NC(=O)[C@H](CC(=O)O)NC(=O)[C@H](CCCNC(=N)N)NC(=O)[C@H](C)NC(=O)[C@H](C)NC(=O)[C@H](CCC(N)=O)NC(=O)[C@H](CCC(=O)O)NC(=O)[C@H](CC(=O)O)NC(=O)[C@H](CC(C)C)NC(=O)[C@@H](NC(=O)[C@@H](NC(=O)[C@H](C)NC(=O)[C@H](CC(C)C)NC(=O)[C@H](CCC(=O)O)NC(=O)[C@H](CO)NC(=O)[C@@H](NC(=O)[C@H](Cc1ccccc1)NC(=O)[C@@H](NC(=O)CNC(=O)[C@H](CCC(=O)O)NC(=O)C(C)(C)NC(=O)[C@@H](N)Cc1c[nH]cn1)[C@@H](C)O)[C@@H](C)O)[C@@H](C)O)[C@@H](C)CC)[C@@H](C)CC)C(=O)N[C@@H](C)C(=O)N[C@@H](Cc1c[nH]cn1)C(=O)N[C@@H](CCCCN)C(=O)N[C@H](C(=O)N[C@H](C(=O)N[C@@H](CC(=O)O)C(=O)O)[C@@H](C)O)[C@@H](C)CC
Q: What does the source list for B8?
A: EC50 GLP-2 (nM); cAMP AlphaScreen [1]: 0.036 nM; EC50 GLP-1 (nM); cAMP AlphaScreen [2]: 0.0074 nM
